Biological target: G-actin (UniProt P68135 1-377)
Assay: fluorescence polarisation

Kd: ~21 nM
B1: TMR-SpWsp1(VCA) (domain or fragment)
chain: QDGRANLMASIRASGGMDLLKSRKVSASPSVASTKTSNPPVEAPPSNNLMDALASALNQRKTKVAQSDEEDEDDDEWD
modifications: TMR-labeled (position not given)

Reference: PMC4293355 (Developmental cell, 2014)
